Results on two molecules are retold here after patent publication US11807881B2, “Polypeptide, fusion polypeptide, and antibiotic against gram-negative bacteria comprising same” (priority 2020, dated 2023).

The test system of one experiment is gram negative bacterium. The experiment in a line: CFU reduction evaluation on various gram negative bacterium. The class given is cell-based. The method, then:
For this, Endolysin LNT101 and LNT102 at a concentration of 2 μM and each 1×10^6 CFU of Pseudomonas aeruginosa (PA01; ATCC 15692), Acinetobacter baumannii (ATCC 17978), Escherichia coli (ATCC 8739), Klebsiella pneumoniae (ATCC 13883), Enterobacter aerogenes (CCARM 16006), and Salmonella enteritidis (ATCC 13076) was added in reaction buffer (20 mM Tris-Cl, pH 7.5) so that the final volume was 200 μl, and it was left at 37° C. for 2 hours. In 2 hours, the number of colonies of each gram negative bacterium was confirmed, and the result was shown in FIG. 8 (in FIG. 8, PA90 represents endolysin LNT101 and mtPA90 represents endolysin LNT102, respectively).
The endolysin LNT102 at a concentration of 0.1, 0.5, 2.5 μM, and each 1×10^6 CFU of Pseudomonas aeruginosa, Acinetobacter baumannii, and Escherichia coli was added in reaction buffer (20 mM Tris-Cl, pH 7.5) so that the final volume was 200 μl, and it was left at 37° C. for 2 hours.
(§1) In order to confirm the killing ability against gram negative bacterium of the fusion polypeptide LNT103 prepared in Example 3.2, CFU reduction evaluation was performed for various gram negative bacterium. In order to perform the CFU reduction evaluation, 2 μM of each of LNT101, LNT102, and LNT103 prepared in Example 3, and 1×10^6 CFU of each of Pseudomonas aeruginosa (PA01; ATCC 15692), Acinetobacter baumannii (ATCC 17978), Escherichia coli (ATCC 8739), Klebsiella pneumoniae (ATCC 13883), and Enterobacter aerogenes (CCARM 16006) were added to reaction buffer (20 mM Tris-Cl, pH7.5) so that the final volume was 200 μl, and it was left at 37° C. for 2 hours. After that, the number of the colonies of each gram negative bacterium was confirmed to compare and evaluate the antibiotic effect of each polypeptide. As a control group, the PBS treatment group (treating PBS in the same volume as the fusion polypeptide) was used.
In addition, the same test was performed by using the fusion polypeptide LNT103, and CecA-LNT101 at a concentration of 2 μM, and the result was shown in FIG. 15. For comparison, the same test was performed for groups treated with LNT102 or PBS.
On the other hand, in order to compare the antibacterial activity in case that a protein other than endolysin (LNT102 or LNT101) was fused to Cecropin A, the killing ability against gram negative bacterium of the fusion polypeptide LNT103 and cecropin A-EGFP fusion protein (a protein in which EGFP (GenBank Accession No. AAB02572.1) having no endolysin activity by replacing LNT102 in LNT103) was evaluated. For this, the proteins were treated in an amount of 0.2 μM or 2 μM, respectively, to perform the CFU reduction test. […] In particular, it could be confirmed that the CFU Counting result for all the tested gram negative bacterium killed all bacterium treated with 0, when LNT103 2 μM was treated.
Furthermore, the killing ability against gram negative bacterium according to the concentration and/or treatment time of the fusion polypeptide LNT103 was tested. Specifically, the fusion polypeptide LNT103 at a concentration of 0.1, 0.3, 0.9, or 2.7 μM and 1×10^6 CFU of Pseudomonas aeruginosa (PA01; ATCC 15692) or Acinetobacter baumannii (ATCC 19606) were added to reaction buffer (20 mM Tris-Cl, pH7.5) so that the final volume was 200 μl, and it was left at 37° C. for 2 hours, and then the number of the colonies was confirmed, and the result was shown in A of FIG. 17.
In addition, the fusion polypeptide LNT103 at a concentration of 2 μM and 1×10^6 CFU of Pseudomonas aeruginosa (PA01; ATCC 15692) were added to reaction buffer (20 mM pH7.5) so that the final volume was 200 μl, and in 0, 20 minutes, 40 minutes and 60 minutes at 37° C., the number of the colonies was confirmed, and the result was shown in B of FIG. 17. […]

In experiment [1] the test system is Pseudomonas aeruginosa PA01. Briefly: Galleria mellonella Pseudomonas aeruginosa infected model, viability. The following applies: PA01 50 CFU/larva. The class given is in vivo. As to the method:
The Pseudomonas aeruginosa killing ability of the endolysin LNT101 was also confirmed in vivo. As an animal model for the in vivo effectivity evaluation, Galleria mellonella was used. The Galleria mellonella model was divided into the healthy group (non-infection group), Pseudomonas aeruginosa infected group (drug non-administration group), 2 LNT101 administration groups in which LNT101 was administered into the infection model, Colistin administration group in which colistin was administered into the Pseudomonas aeruginosa infected model, and combination administration group in which LNT101 and colistin were administered in combination into the Pseudomonas aeruginosa infected model to progress an experiment, and 10 of Galleria mellonella per each group was used.
The Pseudomonas aeruginosa infected model was prepared by infecting Pseudomonas aeruginosa PA01 at the LD80 concentration, 50 CFU/larva, and LNT101 was administered at 0.6 μg/larva (3 mg/Kg) and 6 μg/larva (30 mg/Kg), respectively. Colistin was administered at 0.5 μg/larva (2.5 mg/Kg), and for administration in combination, Colistin at 0.5 μg/larva (2.5 mg/Kg) and LNT101 at 6 μg/larva (30 mg/Kg) were administered. […] In particular, in the LNT101 6 μg/larva (30 mg/Kg) administration group, the viability of 30% was confirmed.

A further experiment concerns Acinetobacter baumannii. Briefly: CFU reduction test. The format is cell-based. As to the method:
In addition, that the LNT101 endolysin had the antibacterial ability in various gram negative bacterium was confirmed by a CFU reduction test, and the result was shown in Table 2 below.
as §1

In the next experiment the test system is Klebsiella pneumoniae. Briefly: CFU reduction evaluation. The class given is cell-based. The conditions noted are these: Klebsiella pneumoniae (ATCC 2208); 2 μM, 2 hours. The method, then: as §1
A further experiment concerns Escherichia coli. The experiment in a line: CFU reduction evaluation. The class given is cell-based. The following applies: E. coli (ATCC 8739); 2 μM, 2 hours. The method, then:
as §1

B1: LNT101: endolysin derived from bacteriophage PBPA90, amino acid sequence SEQ ID NO: 1 (259 aa), purified with 6× His tag (protein)
chain: MGTVLKRGDRGSAVEDLQMKLRVAGYAVSADGIFGGDTEKAVRDFQASKALVVDGKVGPATLAELAKSATVPAKWEAIPFPTANKSRSAAMPTLNAVGAMTGTDSRLLATFASIESAFDYTVKASTSSATGWFQFLDATWDDMIKAHGSKYGIPKDPTRALRKDPRANALMGAEFLKGNAAVLRPVINREPSDTDLYLAHFLGAGGAKKFLSADQKTLGEVLFPKPAKANPSIFSNKGVPRTLAEIYKLFEDKVSKHRA
modifications: 6xHis tag; synthetic_Endolysin LNT101
B1: the “killing ability (number of colonies)” value in the experiment with gram negative bacterium (2 μM, 2 hours, 37° C., P. aeruginosa PA01, A. baumannii ATCC 17978, E. coli ATCC 8739, K. pneumoniae ATCC 13883, E. aerogenes CCARM 16006, S. enteritidis ATCC 13076) was “excellent killing ability compared to the control group”. Also, the “viability of Galleria mellonella” value in experiment [1] (LNT101 6 μg/larva (30 mg/Kg), 72 hours) is 30%; in experiment [1] (LNT101 0.6 or 6 μg/larva, Colistin 0.5 μg/larva, observation for 72 hours) it was “the viability was increased”. The CFU reduction result in the experiment on Acinetobacter baumannii (A. baumannii ATCC 2508), with Acinetobacter baumannii (A. baumannii F4) and with Acinetobacter baumannii (A. baumannii F15) was “◯ (‘◯’ means reduction of 0.5 log CFU or more through the CFU reduction assay)” in each case.

B2: LNT103: fusion polypeptide [Cecropin A]-[linker (GSGSGS)]-[endolysin LNT102]; SEQ ID NO: 15 (MAS, His tag) used in the tests (protein)
chain: MASKWKLFKKIEKVGQNIRDGIIKAGPAVAVVGQATQIAKGSGSGSMGTVLKRGDRGSAVEDLQMKLNVAGYNLSADGIFGGDTEKAVRDVQAGAGLVVDGKVGPKTLYAIAKSATVPAKWEAIPFPTANKSRSAAMPTLNAVGAMTGVDSRLLATFASIESAFDYTVKAKTSSATGWFQFLDATWDDMIKAYGSKYGIPKDPTRALRKDPRANALMGAEFIKGNAAVLRPVINREPSDTDLYLAHFLGAGGAKKFLSADQKTLGEVLFPKPAKANPSIFSNKGVPRTLAEIYKLFEDKVSKHRALEHHHHHH
modifications: synthetic_Fusion Polypeptide LNT103 with MAS, His tag, and extra sequence
Consider B2, for which the “antibacterial activity (CFU reduction test)” value with gram negative bacterium (0.2 μM or 2 μM (FIG. 16)) is on record as “had excellent antibacterial activity”. Further, the “CFU reduction effect compared to LNT101 and LNT102” value with gram negative bacterium (2 μM, 2 hours, 37° C., 1×10^6 CFU of each gram negative bacterium) is reported as 1.5˜5.5 log CFU/ml. In addition, the counting result in the experiment on gram negative bacterium (2 μM, all the tested bacterium (FIG. 15)) worked out at 0 log CFU/ml. The “CFU Counting result” value with gram negative bacterium (LNT103 2 μM, all the tested gram negative bacterium (FIG. 16)) is recorded as 0; with Klebsiella pneumoniae, 0 log CFU/ml; with Escherichia coli it was 0 log CFU/ml; in the experiment on Acinetobacter baumannii (Acinetobacter baumannii (ATCC 19606, ATCC 17978), 2 μM, 2 hours) it was 0 log CFU/ml. The “killing ability (number of colonies)” value with gram negative bacterium (P. aeruginosa PA01 and A. baumannii ATCC 19606, 0.1-2.7 μM 2 hours, 2 μM 0-60 minutes, 1 μM 0-10 minutes) is “had the killing ability against gram negative bacterium in a concentration and time-dependent manner”.
